The values below come from US20060288448.

The subject of data set [1] is T1, Cry8Bb1-K05 88 kDa polypeptide.
T1 sequence: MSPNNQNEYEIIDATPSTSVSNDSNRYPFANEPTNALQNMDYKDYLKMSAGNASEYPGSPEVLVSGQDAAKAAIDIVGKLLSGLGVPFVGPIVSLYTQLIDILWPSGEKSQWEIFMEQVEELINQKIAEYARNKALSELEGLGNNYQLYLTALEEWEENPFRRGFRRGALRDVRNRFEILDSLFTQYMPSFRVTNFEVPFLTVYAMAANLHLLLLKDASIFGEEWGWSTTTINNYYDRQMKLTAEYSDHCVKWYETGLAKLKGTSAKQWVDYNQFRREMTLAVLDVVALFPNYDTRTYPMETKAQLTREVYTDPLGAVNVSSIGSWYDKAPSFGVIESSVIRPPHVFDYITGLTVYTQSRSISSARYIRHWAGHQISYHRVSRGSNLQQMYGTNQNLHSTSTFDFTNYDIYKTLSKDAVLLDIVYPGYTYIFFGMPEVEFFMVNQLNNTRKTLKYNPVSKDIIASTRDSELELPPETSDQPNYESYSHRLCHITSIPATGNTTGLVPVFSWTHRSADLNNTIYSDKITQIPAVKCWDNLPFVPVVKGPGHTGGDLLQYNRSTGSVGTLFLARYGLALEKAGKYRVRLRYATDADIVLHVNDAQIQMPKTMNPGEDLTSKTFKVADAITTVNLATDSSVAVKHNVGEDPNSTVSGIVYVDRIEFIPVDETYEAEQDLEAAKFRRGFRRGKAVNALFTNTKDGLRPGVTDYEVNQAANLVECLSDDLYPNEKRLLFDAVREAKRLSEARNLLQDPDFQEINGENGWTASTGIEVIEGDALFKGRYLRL

Data set [2] deals with T2, Cry8Bb1-ISC-1 88 kDa polypeptide.
T2 sequence: T1 sequence with F161L, R162S, R163Q, G164S, F165L, R166S, R167Q, G168S

Positions count from the first letter of the chain named.

As for trypsin, the “proteolytic digestion for 72 h (SDS-PAGE, N-terminal sequencing)” value in data set [1] is “Cry8Bb1-K05 was cleaved within the loop between helix 3 and 4 of domain I of the toxin molecule to generate a 55 kDa polypeptide”. For the same substance, in data set [2], the “proteolytic digestion for 72 h (SDS-PAGE)” value was “the 88 kDa Cry8Bb1-ISC-1 polypeptide was not cleaved within the activation loop to generate the 55 kDa polypeptide”.

Consider chymotrypsin, for which, in data set [1], the “proteolytic digestion for 72 h (SDS-PAGE, N-terminal sequencing)” value was “Cry8Bb1-K05 was cleaved within the loop between helix 3 and 4 of domain I of the toxin molecule to generate a 55 kDa polypeptide”. In data set [2], the “proteolytic digestion for 72 h (SDS-PAGE)” value is reported as “the 88 kDa Cry8Bb1-ISC-1 polypeptide was not cleaved within the activation loop to generate the 55 kDa polypeptide”.
